Assay results reported in patent publication US20250027068A1 (published 2025).
Where a chain is given by its changes, count along the chain named.

B1: PRT-417 (enzyme)
chain: MTITSVWTKGVTPPTPEDFRYNNEDVLHAPYVANQGWYDITKTFDGKDNLLCGAATAGNMLHWWFDQNKEEIERYLKKHPEKQKIIFNNQELFDVKAAIDTKDSQTNSKLFNYFRDKAFPNLSARQLGVMPDLVLDMFINGYYLNLGKTQSTDVNRPYQDKDKRGGIFDAVFTRGDQTTLLTARHDLKNKGLNEISDLIKQELTEGKALALSHTYANVRINHVINLWGADFDAEGELIAIYVTDSDANASIGMKKYFVGVNANGKVAISAKKIEGDNIGAQVLGLFTLSTGQDIWQKLS
B2: PRT-425 (enzyme)
chain: B1 chain with N121G, E236N
B3: PRT-426 (enzyme)
chain: B1 chain with M130F, E236N
B4: PRT-418 (enzyme)
chain: B1 chain with E236N, F257A
B5: PRT-443 (enzyme)
chain: MSQTEDSESLQRLRDIEDFQAEKKKQNVVYTKWLDGVDVKDHDFRKIVDGNIAYYATPLLNGRGFYDINKDFNRDSDKCAAAVAANMFHYWLDRNRDNVDRFLRQNPEKHGIIELPDEQLKLSDFLNTYESDDGYRDKSKLFDFISNNFNGPVWTDKLLDNYINGYAYNYKYGRTIEDPTKNTSKINFFKEVFNEKILTNNHSIRNQNEFSVLLSEALYTGKAIGLSYGPAGLRHSLGHIISVWGADLDADGNVVAIYVTDSDDKKLTIGDERVGLKRYKISTDDEGRLRLTAYEETHNTGGQIRGLWTLDTGKQAWADYFDKTEQTGTDQAEQ
B6: PRT-444 (enzyme)
chain: B5 chain with E118G, G151K
B7: PRT-401 (enzyme)
chain: MVTSVWTKGVTPPADFTQGEDVFHAPYVANQGWYDITKEFNGKDDLLCGAATAGNMLHWWFDQNKEYIEAYLKKHPEKQKIMFGDQELLDVRKAINTKGSQKNSELFNYFRDKAFPNLSARRLGVMPDLVLDMFINGYYLNVTKTQTTDVNRTYQEKDKRGGIFDAVFTRGDQSKLLTSRHDFKEKGLKEISDLIKQELTEGKALGLSHTYANVRINHVINLWGADFDSDGNLKAIYVTDSDSNASIGMKKYFVGVNSAGKVAISAKEIKEDNIGAQVLGLFTLSTGQDIWNQTN
B8: PRT-410 (enzyme)
chain: B7 chain with E39T, S243T
B9: PRT-409 (enzyme)
chain: B7 chain with E39T, D172V
B10: PRT-402 (enzyme)
chain: B7 chain with E39T, I216L
B11: PRT-395 (enzyme)
chain: B7 chain with E39T, N117T
B12: PRT-385 (enzyme)
chain: MVTSVWTKGVTPPTNFTYGEDVLHAPYVANQGWYDITKTFNGKDDLLCGAATAGNMLHWWFDQNKEQIENYLKKHPEKQKINFNGEQMFDVKEAIDTKDSQLDSKLFEYFKEKAFPYLSTKHLGVFPDHVIDMFINGYRLSLTNHGPTPVKRGSKDPRGGIFDAVFTRGDQSKLLTNRHDFKEKTLKEISDLIKQELTEGKALGISHTYANGRINHVINLWGADFDAEGNLEAIYVTDSDSNASIGMKKYFVGVNSNGKVAISAKEIEEDNIGAQVLGLFTLSTGQDIWNQTN
B13: PRT-378 (enzyme)
chain: B12 chain with Y117S, G212V
B14: PRT-394 (enzyme)
chain: B12 chain with G212V, N242E
B15: PRT-393 (enzyme)
chain: B12 chain with G212V, S241T
B16: PRT-386 (enzyme)
chain: B12 chain with G212V, Y235A
B17: PRT-379 (enzyme)
chain: B12 chain with T143L, G212V
B18: PRT-387 (enzyme)
chain: B12 chain with G212V, N257S

Target: pooled human IgG (human IgG1, 2, 3 and 4) (human)
Test: cell-based or functional assay
Also: test concentration or dose not given here.

Row | Binder | Enzyme Activity Endpoint Assay: Fab′2 [ng/µL] | Enzyme Activity Endpoint Assay: Fc [ng/µL] | Enzyme Activity Endpoint Assay: IgG [ng/µL] | Enzyme Activity Endpoint Assay: scIgG [ng/µL]
1 | B1 | 193 | 27 | 324 | 0
2 | B2 | 568 | 27 | 169 | 0
3 | B3 | 508 | 283 | 243 | 0
4 | B4 | 382 | 283 | 288 | 149
5 | B5 | 17 | 0 | 431 | 535
6 | B6 | 494 | 321 | 0 | 286
7 | B7 | 624 | 329 | 128 | 0
8 | B8 | 567 | 297 | 206 | 0
9 | B9 | 658 | 313 | 0 | 0
10 | B10 | 530 | 342 | 0 | 188
11 | B11 | 544 | 358 | 0 | 204
12 | B12 | 494 | 265 | 103 | 56
13 | B13 | 477 | 319 | 0 | 207
14 | B14 | 482 | 323 | 0 | 209
15 | B15 | 663 | 317 | 0 | 0
16 | B16 | 519 | 337 | 0 | 240
17 | B17 | 599 | 370 | 0 | 226
18 | B18 | 605 | 366 | 0 | 242
